The experiment addresses T1, purified Flag-PREX2 protein (UniProt Q70Z35 1-1606).
T1 construct: PREX2, full length (183 kD); it may be the same construct; also called purified PREX2 protein; purified full-length PREX2; source: recombinant, purified (as described in Supplementary materials and methods)
The experiment in a line: pull-down; 25 µL AHCYL1-binding glutathione magnetic beads with 250 ng purified Flag-PREX2, on ice 1 h; washed with 50 mM Tris-HCl pH 7.4, 300 mM NaCl, 0.5% NP40; detected by Flag antibody. Particulars: both partners purified.

T1 sequence (Q70Z35 whole entry): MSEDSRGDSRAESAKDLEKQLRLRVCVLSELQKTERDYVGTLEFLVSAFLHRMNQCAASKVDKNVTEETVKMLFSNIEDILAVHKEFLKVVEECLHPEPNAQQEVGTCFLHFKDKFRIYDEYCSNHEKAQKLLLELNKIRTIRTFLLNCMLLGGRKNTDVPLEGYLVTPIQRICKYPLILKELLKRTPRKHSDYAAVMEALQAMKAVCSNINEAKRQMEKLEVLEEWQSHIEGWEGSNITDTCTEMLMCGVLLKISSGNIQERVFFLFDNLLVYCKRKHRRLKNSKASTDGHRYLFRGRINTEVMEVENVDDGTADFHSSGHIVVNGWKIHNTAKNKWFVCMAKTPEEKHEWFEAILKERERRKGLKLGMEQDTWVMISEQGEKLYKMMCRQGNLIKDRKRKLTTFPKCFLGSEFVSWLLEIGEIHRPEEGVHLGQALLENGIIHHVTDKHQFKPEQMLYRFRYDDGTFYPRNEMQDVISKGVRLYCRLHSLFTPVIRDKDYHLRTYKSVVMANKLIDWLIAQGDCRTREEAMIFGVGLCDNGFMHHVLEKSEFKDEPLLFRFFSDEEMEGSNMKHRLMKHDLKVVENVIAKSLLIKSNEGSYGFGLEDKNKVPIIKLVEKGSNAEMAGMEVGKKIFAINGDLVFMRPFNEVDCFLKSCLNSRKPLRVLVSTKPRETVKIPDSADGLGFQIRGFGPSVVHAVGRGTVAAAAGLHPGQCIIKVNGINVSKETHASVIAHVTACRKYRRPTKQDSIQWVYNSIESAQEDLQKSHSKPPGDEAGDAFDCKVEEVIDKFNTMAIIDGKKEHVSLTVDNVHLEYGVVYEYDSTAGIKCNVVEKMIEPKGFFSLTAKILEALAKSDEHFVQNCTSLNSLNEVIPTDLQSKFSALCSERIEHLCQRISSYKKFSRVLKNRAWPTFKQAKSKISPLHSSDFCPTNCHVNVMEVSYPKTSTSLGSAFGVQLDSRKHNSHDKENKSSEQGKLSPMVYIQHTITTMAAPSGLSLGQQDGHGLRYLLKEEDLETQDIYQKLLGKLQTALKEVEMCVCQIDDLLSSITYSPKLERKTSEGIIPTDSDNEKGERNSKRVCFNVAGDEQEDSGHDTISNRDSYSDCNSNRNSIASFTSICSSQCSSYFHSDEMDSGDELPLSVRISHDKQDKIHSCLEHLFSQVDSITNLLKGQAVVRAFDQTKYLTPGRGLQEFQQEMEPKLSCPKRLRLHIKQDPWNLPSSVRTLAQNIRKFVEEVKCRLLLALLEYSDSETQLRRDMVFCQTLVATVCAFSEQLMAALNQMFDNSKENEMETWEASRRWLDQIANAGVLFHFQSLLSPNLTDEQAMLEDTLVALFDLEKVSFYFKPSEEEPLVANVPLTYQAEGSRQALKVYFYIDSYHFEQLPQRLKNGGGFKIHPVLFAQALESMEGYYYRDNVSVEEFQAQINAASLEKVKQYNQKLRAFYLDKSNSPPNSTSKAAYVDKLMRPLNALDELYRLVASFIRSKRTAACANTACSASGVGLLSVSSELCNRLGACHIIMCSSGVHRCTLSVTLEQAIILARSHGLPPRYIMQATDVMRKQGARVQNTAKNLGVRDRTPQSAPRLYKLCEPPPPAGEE

B1: GST-AHCYL1 recombinant protein (natural protein, UniProt O43865 1-530, looked up)
chain: MSMPDAMPLPGVGEELKQAKEIEDAEKYSFMATVTKAPKKQIQFADDMQEFTKFPTKTGRRSLSRSISQSSTDSYSSAASYTDSSDDEVSPREKQQTNSKGSSNFCVKNIKQAEFGRREIEIAEQDMSALISLRKRAQGEKPLAGAKIVGCTHITAQTAVLIETLCALGAQCRWSACNIYSTQNEVAAALAEAGVAVFAWKGESEDDFWWCIDRCVNMDGWQANMILDDGGDLTHWVYKKYPNVFKKIRGIVEESVTGVHRLYQLSKAGKLCVPAMNVNDSVTKQKFDNLYCCRESILDGLKRTTDVMFGGKQVVVCGYGEVGKGCCAALKALGAIVYITEIDPICALQACMDGFRVVKLNEVIRQVDVVITCTGNKNVVTREHLDRMKNSCIVCNMGHSNTEIDVTSLRTPELTWERVRSQVDHVIWPDGKRVVLLAEGRLLNLSCSTVPTFVLSITATTQALALIELYNAPEGRYKQDVYLLPKKMDEYVASLHLPSFDAHLTELTDDQAKYLGLNKNGPFKPNYYRY
notes: AHCYL1 (IRBIT); Construct details are in the supplementary materials and methods; also called AHCYL1 conjugated-GST beads; source: recombinant, purified (as described in Supplementary materials and methods)
For the molecule B1, the binding result is on record as “binds”.
